Laboratory results: the nanobody polyreactivity screen of Harvey et al. (2022)

Assay: yeast display, Sf9 membrane polyspecificity reagent, FACS + sequencing; frameworks hold sequencing errors
How it was run: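 Nanobodies from a synthetic yeast display library (Saccharomyces cerevisiae BJ5465), induced 36–48 hours with galactose, were stained 1 hour at 4 °C with 10% biotinylated, detergent-solubilized Sf9 membrane reagent, enriched on streptavidin microbeads, then FACS-sorted. Anti-HA (expression) and streptavidin (reagent binding) fluorescence set low and high (top ~1%) gates. Polyreactivity labels come from the gate of origin. Genes were colony-PCR amplified, MiSeq 2 × 250 sequenced and filtered by CDR length.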

Sequence | polyreactivity (PSR sort gate)
QVQLVESGGGLVQAGGSLRLSCAASGFTFWRYAMGWYRQAPGKDRELVAAISSSGGSTYYADSVKGRFTISRDNAKNTVYLQMNSLKPEVTAVYYCATSVRFVRGWGYSYRGYDYWGQGTQVTVSS | high polyreactivity
QVQLVESGGGLVQAGGSLRLSCAASGFTFWSYAMGWYRQAPGKERELVAAISRNGGRTYYADSVKGRFTISRDNAKNTVYVQMNSLKPEDTAVYYCATRARNRYTEMDYWGQGTQVTVSS | high polyreactivity
QVQLVESGGGLVQAGGSLRLSCAASGFTFWSYAMGWYRQAPGKERELVAAISSSGDSTYYADSVKGRFTISRDNAKNTVYLQMNSLKPEDTAVYYCAAGTHTDYGRYYYWGQGTQVTVSS | low polyreactivity
QVQLVESGGGLVQAGGSLRLSCAASGFTFWTYAMGWYRQAPGKERELVAAISTSGGSTYYADSVKGRFTISRDNAKNTVYLQINSLKPEDTAVYYCAAYAIGEHFRARYGYWGQGTQVTVSS | high polyreactivity
QVQLVESGGGLVQAGGSLRLSCAASGFTFWTYAMGWYRQAPGKERELVAAITGIGGSTYYADSVKGRFTISRDNAKNTVYLQMNSLKPEDTAVYYCAARYQATYPSMGYWGQGTQVTVSS | low polyreactivity
QVQLVESGGGLVQAGGSLRLSCAASGFTFWVYAMGWYRQAPGKERELVADISSGGSTNYADSVKGRFTISRDNAKNTVYLQMNSLKPEDTAVYYCATYRARWTWYTRYDYWGQGTQVTVSS | high polyreactivity
QVQLVESGGGLVQAGGSLRLSCAASGFTFWYYAMGCYRQAPGKERELVPSISSIGGSTYYADSVKGRFTISRDNAKYTVYLQMNSLKPEDTAVYYCAARYKFLRGGVRRDYLGQGTQVTVSS | high polyreactivity
QVQLVESGGGLVQAGGSLRLSCAASGFTFWYYAMGWYRPAPGNERELVASISRTGGTTYYADSVKGRFTISRDNAKNTVDLQMTSLKPEDTAVYYCNARPKVYDREYDYWGQGTQVTVSS | high polyreactivity
QVQLVESGGGLVQAGGSLRLSCAASGFTFWYYAMGWYRQAPGKERELVAAITYNGDRTYYADSVKGRFTISRDNAKNTVYLQMNSLKPEDTAVYYCAAAFVSVRKRYGYWGQGTQVTVSS | high polyreactivity
QVQLVESGGGLVQAGGSLRLSCAASGFTFWYYAMGWYRQAPGKERELVASISSIGGSTYYADSVKGRFTISRDNAKNTVYLQMNSLKPEDTAVYYCAARYKFLRGGVRRDYWGQGTQVTVSS | high polyreactivity
QVQLVESGGGLVQAGGSLRLSCAASGFTFWYYTMGWYRQAPGKERELVAAITGRGGTTHYADSVKGRFTISRDNAKNTVYLQMNSLKPEDTAVYYCAARAYRPSLSVVRGGYWGQGTQVTVLS | high polyreactivity
QVQLVESGGGLVQAGGSLRLSCAASGFTFYAYAMGWYRQAPGKERELVAVISWSGGSTYYADSVKGRFTISRDNAKNTVYLQMNSLKPEDTAVYYCAADSLESYPDYEYDYWGQGTQVTVSS | low polyreactivity
QVQLVESGGGLVQAGGSLRLSCAASGFTFYAYVMGWYRQAPGKERELVAAISGSGTSTYYADSVKGRFTISRDNAKNTVYLQMNSLKPEDTAVYYCAADYYPWDLDDDYWGQGTQVTVSS | high polyreactivity
QVQLVESGGGLVQAGGSLRLSCAASGFTFYDNAMGWYRQAPGKERELVAAINWRSGSTYYADSVKGRFTISRDNAKNTVYLQMNSLKPEDTAVYYCAAGLVFHYYAPKSYYLGYDYWGQGTQVTVSS | low polyreactivity
QVQLVESGGGLVQAGGSLRLSCAASGFTFYDNAMGWYRQAPGKERELVAAISWGGGSTYYADSVKGRFTISRDNAKNTVYLQMNSLKPEDTAVYYCNVYYGRVLLGFYYWGQGTQVTVSS | low polyreactivity
QVQLVESGGGLVQAGGSLRLSCAASGFTFYEYAMGWYRQAPGKERELVAAINRRGGRTYYADSVKGRFTISRDNAKNTVYLQMNSLKPEDTAVYYCNTPVSDGGHYYSWGQGTQVTVSS | high polyreactivity

Sequence | polyreactivity (PSR sort gate)
QVQLVESGGGLVQAGGSLRLSCAASGFTFYEYSMGWYRQAPGKERELVAAINWNGGRTYYADSVKGRFTISRDNAKNTVYLQMNSLKPEDTAVYYCAARVAPKTKIYRRYYWGQGTQVTVSS | high polyreactivity
QVQLVESGGGLVQAGGSLRLSCAASGFTFYFYAMGWYRQAPGKERELVAAITGGTSTYYADSVKGRFTISRDNAKNTVYFQRNSLKPEDTSVYYCAAGYLDVLWLLDLLQLYGYWGQGNQVTVSS | low polyreactivity
QVQLVESGGGLVQAGGSLRLSCAASGFTFYFYAMGWYRQAPGKERELVATITIGGRTNYADSVKGRFTISRDNAKNTVYLQMNSLKPEDTAVYYCAAAYLWISRYSGYDYWGQGTQVTVSS | high polyreactivity
QVQLVESGGGLVQAGGSLRLSCAASGFTFYFYAMGWYRQAPGKETELVAGISRGGSTTYADSVTGRFTISRDNAKNTVYLQRNSLKPHDTAVYYCAVGYDIVRYSYSPFYRYDYWGQGTQVTVSS | low polyreactivity
QVQLVESGGGLVQAGGSLRLSCAASGFTFYGNALGWYRQAPGKARELVAAISRSGGSTYYADSVKGRFTISRDNAKNTVYLQMNSLKPDDTAVYYCAVYVRKWYAVTDQYSGSDYWGQGTQVTVSS | high polyreactivity
QVQLVESGGGLVQAGGSLRLSCAASGFTFYGYAMGWYRQAPGKERELVAGISKNGGSTYYADSVKGRFTISRDNAKNTVYLQMNSLKPEDTAVYYCNKRSTLNTRRDYWGQGTQVTVSS | high polyreactivity
QVQLVESGGGLVQAGGSLRLSCAASGFTFYGYAMGWYRQAPGKERELVAGITSGGRTYYADSVKGRFTISRDNAKNTVYLQMNSLKPEDTAVYYCAARRITWGRFDYWGQGTQVTVSS | high polyreactivity
QVQLVESGGGLVQAGGSLRLSCAASGFTFYGYVMGWSRQAPGKERDLVAAITRGGNTYYADSVKGRITISRDNAKNTVYLQMNSLKPEDTAVYYCARDRSYWDKPRQRDGYWGQGTQVTVSS | low polyreactivity
QVQLVESGGGLVQAGGSLRLSCAASGFTFYHNAMGWYRQAPGKERELVAAISSSGDSTYYADSVKGRFTIARDNAKNTVYLQMNSLKPEDTAVYYCNDYFYYLSQYYYYWFNYDYWGQGTQVTVSS | low polyreactivity
QVQLVESGGGLVQAGGSLRLSCAASGFTFYHNAMGWYRQATGKERELVATITARGGRTYYADSVKGRFTISRDNAKNTVYLQMNSLKPVDTAVYYCNVKASRGYTYEYDYWGQGTQVTVSS | high polyreactivity
QVQLVESGGGLVQAGGSLRLSCAASGFTFYIYAMGWYRQAPGKERELVASISARGGSTYYADSVKGRFTISRDNAKNTVYLQMNSLKPEDTAVYYCNALYNYAEIYGRGYWGQGTQVTVSS | high polyreactivity
QVQLVESGGGLVQAGGSLRLSCAASGFTFYKNTMGWYRQAPGKERELVAAISYRGGTYYADSVKGRFTISRDNAKNTVYLQMNSLKPQDTAVYYCNARYRGKYSSYGYWGQGTQVTVSS | high polyreactivity
QVQLVESGGGLVQAGGSLRLSCAASGFTFYKYVMGWYRPAPGKERELVAAITTSGGSTYYADSVKGRFTISRDNAKNTVYLQMNCLKPEDTAVYYCNARSLHTSEGDYWGQGTQVTVSS | low polyreactivity
QVQLVESGGGLVQAGGSLRLSCAASGFTFYLYAMGWYRQAPGKERELVAAISSRGGTTYYADSVKGRFTISRDNAKNTVYLQMNSLKPEDTAVYYCNVARVYHIYDYWGQGTQVTVSS | high polyreactivity
QVQLVESGGGLVQAGGSLRLSCAASGFTFYLYAMGWYRQAPGKERELVAAITYSAGSTYYADSVKGRFTISRDNAKNTVYLQMNSLKPEDTAVYYCAKRGHYRAWGGGGYWGQGTQVTVSS | low polyreactivity
